Source: patent publication US20120164137A1 (MORPHOTEK, published 2012)

Columns and labels:
[1] = biological target: T1, Human FRA on IGROV-1 human ovarian adenocarcinoma cells (human, UniProt P15328 25-234); assay: cell-based or functional assay
[2] = biological target: T1, Human FRA on IGROV-1 human ovarian …; assay: cell-based or functional assay; remark: listed apart in the source
[3] = biological target: T2, Recombinant human folate receptor alpha (FRA) (human, UniProt P15328 25-234); assay: SPR, FRA on CM5 chip, parallel line analysis; reference standard = 100%
T2 construct: Immobilised on a CM5 chip by amine coupling; also called FR-alpha
T2 sequence (P15328 25-234 limits assumed): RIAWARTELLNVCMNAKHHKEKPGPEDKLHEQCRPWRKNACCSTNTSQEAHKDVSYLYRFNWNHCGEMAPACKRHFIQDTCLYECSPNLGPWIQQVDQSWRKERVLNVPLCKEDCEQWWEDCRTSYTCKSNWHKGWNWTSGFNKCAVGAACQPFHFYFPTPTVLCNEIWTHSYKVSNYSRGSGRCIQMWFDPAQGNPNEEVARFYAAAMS
Method: The surface was regenerated between cycles by flushing with 10 mM glycine pH 2.0.

[4] = biological target: T1, Human FRA on IGROV-1 human ovarian …; assay: cell-based or functional assay; remark: listed apart in the source

T1 sequence (P15328 25-234 limits assumed): as above

Binder	Internalization IC50 [1]	IC50 (Hum-ZAP secondary immunotoxin killing of IGROV-1 cells) [2]	Measured Potency (%) [3]	INTL % (0 Min) [4]	INTL % (15 min) [4]	INTL % (30 min) [4]	INTL % (60 min) [4]	INTL % (150 min) [4]	Half-Maximal Internalization Constant [1]
MORAb-003 anti-FRA antibody reference standard (antibody, human IgG1, kappa, V domains shown, N-linked neutral glycans at Asn299 in SEQ ID NO: 5) VH: EVQLVESGGGVVQPGRSLRLSCSASGFTFSGYGLSWVRQAPGKGLEWVAMISSGGSYTYYADSVKGRFAISRDNAKNTLFLQMDSLRPEDTGVYFCARHGDDPAWFAYWGQGTPVTVSS VL: DIQLTQSPSSLSASVGDRVTITCSVSSSISSNNLHWYQQKPGKAPKPWIYGTSNLASGVPSRFSGSGSGTDYTFTISSLQPEDIATYYCQQWSSYPYMYTFGQGTKVEIKR	0.014 µg/mL	14 ng·mL	–	–	–	–	–	–	–
MORAb-003 anti-FRA antibody, lot NB810-12 (low temperature; harvested 14 days after initiation of culture) (antibody, human IgG1, kappa, V domains shown, N-linked neutral glycans at Asn299 in SEQ ID NO: 5) VH: EVQLVESGGGVVQPGRSLRLSCSASGFTFSGYGLSWVRQAPGKGLEWVAMISSGGSYTYYADSVKGRFAISRDNAKNTLFLQMDSLRPEDTGVYFCARHGDDPAWFAYWGQGTPVTVSS VL: DIQLTQSPSSLSASVGDRVTITCSVSSSISSNNLHWYQQKPGKAPKPWIYGTSNLASGVPSRFSGSGSGTDYTFTISSLQPEDIATYYCQQWSSYPYMYTFGQGTKVEIKR	0.025 µg/mL	25 ng·mL	87.3%	0%	3%	21%	39%	55%	41.2 min
MORAb-003 anti-FRA antibody, lot NB809-65 (positive control; harvested 13 days after initiation of culture) (antibody, human IgG1, kappa, V domains shown, N-linked neutral glycans at Asn299 in SEQ ID NO: 5, also called Pos. ctl; positive control (round 2)) VH: EVQLVESGGGVVQPGRSLRLSCSASGFTFSGYGLSWVRQAPGKGLEWVAMISSGGSYTYYADSVKGRFAISRDNAKNTLFLQMDSLRPEDTGVYFCARHGDDPAWFAYWGQGTPVTVSS VL: DIQLTQSPSSLSASVGDRVTITCSVSSSISSNNLHWYQQKPGKAPKPWIYGTSNLASGVPSRFSGSGSGTDYTFTISSLQPEDIATYYCQQWSSYPYMYTFGQGTKVEIKR	0.014 µg/mL	14 ng·mL	49.7%	0%	3%	13%	33%	52%	51.7 min
MORAb-003 anti-FRA antibody, lot NB809-67 (low DO; harvested 13 days after initiation of culture) (antibody, human IgG1, kappa, V domains shown, N-linked neutral glycans at Asn299 in SEQ ID NO: 5) VH: EVQLVESGGGVVQPGRSLRLSCSASGFTFSGYGLSWVRQAPGKGLEWVAMISSGGSYTYYADSVKGRFAISRDNAKNTLFLQMDSLRPEDTGVYFCARHGDDPAWFAYWGQGTPVTVSS VL: DIQLTQSPSSLSASVGDRVTITCSVSSSISSNNLHWYQQKPGKAPKPWIYGTSNLASGVPSRFSGSGSGTDYTFTISSLQPEDIATYYCQQWSSYPYMYTFGQGTKVEIKR	0.029 µg/mL	29 ng·mL	56.2%	0%	3%	14%	34%	53%	50.7 min
MORAb-003 anti-FRA antibody, lot NB810-11 (galactose supplement; harvested 14 days after initiation of culture) (antibody, human IgG1, kappa, V domains shown, N-linked neutral glycans at Asn299 in SEQ ID NO: 5) VH: EVQLVESGGGVVQPGRSLRLSCSASGFTFSGYGLSWVRQAPGKGLEWVAMISSGGSYTYYADSVKGRFAISRDNAKNTLFLQMDSLRPEDTGVYFCARHGDDPAWFAYWGQGTPVTVSS VL: DIQLTQSPSSLSASVGDRVTITCSVSSSISSNNLHWYQQKPGKAPKPWIYGTSNLASGVPSRFSGSGSGTDYTFTISSLQPEDIATYYCQQWSSYPYMYTFGQGTKVEIKR	0.019 µg/mL	19 ng·mL	84.7%	0%	3%	6%	29%	50%	56.6 min
MORAb-003 anti-FRA antibody, lot NB810-13 (high osmolarity; harvested 14 days after initiation of culture) (antibody, human IgG1, kappa, V domains shown, N-linked neutral glycans at Asn299 in SEQ ID NO: 5) VH: EVQLVESGGGVVQPGRSLRLSCSASGFTFSGYGLSWVRQAPGKGLEWVAMISSGGSYTYYADSVKGRFAISRDNAKNTLFLQMDSLRPEDTGVYFCARHGDDPAWFAYWGQGTPVTVSS VL: DIQLTQSPSSLSASVGDRVTITCSVSSSISSNNLHWYQQKPGKAPKPWIYGTSNLASGVPSRFSGSGSGTDYTFTISSLQPEDIATYYCQQWSSYPYMYTFGQGTKVEIKR	0.99 µg/mL	990 ng·mL	72.6%	0%	–	17%	40%	62%	49.6 min
MORAb-003 anti-FRA antibody, lot NB810-10 (positive control; harvested 14 days after initiation of culture) (antibody, human IgG1, kappa, V domains shown, N-linked neutral glycans at Asn299 in SEQ ID NO: 5, also called Pos. ctl; positive control (round 1)) VH: EVQLVESGGGVVQPGRSLRLSCSASGFTFSGYGLSWVRQAPGKGLEWVAMISSGGSYTYYADSVKGRFAISRDNAKNTLFLQMDSLRPEDTGVYFCARHGDDPAWFAYWGQGTPVTVSS VL: DIQLTQSPSSLSASVGDRVTITCSVSSSISSNNLHWYQQKPGKAPKPWIYGTSNLASGVPSRFSGSGSGTDYTFTISSLQPEDIATYYCQQWSSYPYMYTFGQGTKVEIKR	1.63 µg/mL	1630 ng·mL	85.5%	0%	4%	9%	32%	56%	58.4 min
MORAb-003 anti-FRA antibody, lot NB809-69 (10 mM Na butyrate; harvested 13 days after initiation of culture) (antibody, human IgG1, kappa, V domains shown, N-linked neutral glycans at Asn299 in SEQ ID NO: 5) VH: EVQLVESGGGVVQPGRSLRLSCSASGFTFSGYGLSWVRQAPGKGLEWVAMISSGGSYTYYADSVKGRFAISRDNAKNTLFLQMDSLRPEDTGVYFCARHGDDPAWFAYWGQGTPVTVSS VL: DIQLTQSPSSLSASVGDRVTITCSVSSSISSNNLHWYQQKPGKAPKPWIYGTSNLASGVPSRFSGSGSGTDYTFTISSLQPEDIATYYCQQWSSYPYMYTFGQGTKVEIKR	0.024 µg/mL	24 ng·mL	49.3%	0%	4%	14%	36%	56%	51.2 min
MORAb-003 anti-FRA antibody, lot NB859-28 (low DO; harvested 14 days after initiation of culture) (antibody, human IgG1, kappa, V domains shown, N-linked neutral glycans at Asn299 in SEQ ID NO: 5, also called low DO (round 3)) VH: EVQLVESGGGVVQPGRSLRLSCSASGFTFSGYGLSWVRQAPGKGLEWVAMISSGGSYTYYADSVKGRFAISRDNAKNTLFLQMDSLRPEDTGVYFCARHGDDPAWFAYWGQGTPVTVSS VL: DIQLTQSPSSLSASVGDRVTITCSVSSSISSNNLHWYQQKPGKAPKPWIYGTSNLASGVPSRFSGSGSGTDYTFTISSLQPEDIATYYCQQWSSYPYMYTFGQGTKVEIKR	–	–	44.5%	0%	–	19%	44%	53%	36.5 min
MORAb-003 anti-FRA antibody, lot NB809-70 (CuCl supplement; harvested 13 days after initiation of culture) (antibody, human IgG1, kappa, V domains shown, N-linked neutral glycans at Asn299 in SEQ ID NO: 5) VH: EVQLVESGGGVVQPGRSLRLSCSASGFTFSGYGLSWVRQAPGKGLEWVAMISSGGSYTYYADSVKGRFAISRDNAKNTLFLQMDSLRPEDTGVYFCARHGDDPAWFAYWGQGTPVTVSS VL: DIQLTQSPSSLSASVGDRVTITCSVSSSISSNNLHWYQQKPGKAPKPWIYGTSNLASGVPSRFSGSGSGTDYTFTISSLQPEDIATYYCQQWSSYPYMYTFGQGTKVEIKR	0.027 µg/mL	27 ng·mL	48%	0%	6%	16%	37%	58%	53.3 min
MORAb-003 anti-FRA antibody, lot NB809-68 (high CO2; harvested 13 days after initiation of culture) (antibody, human IgG1, kappa, V domains shown, N-linked neutral glycans at Asn299 in SEQ ID NO: 5) VH: EVQLVESGGGVVQPGRSLRLSCSASGFTFSGYGLSWVRQAPGKGLEWVAMISSGGSYTYYADSVKGRFAISRDNAKNTLFLQMDSLRPEDTGVYFCARHGDDPAWFAYWGQGTPVTVSS VL: DIQLTQSPSSLSASVGDRVTITCSVSSSISSNNLHWYQQKPGKAPKPWIYGTSNLASGVPSRFSGSGSGTDYTFTISSLQPEDIATYYCQQWSSYPYMYTFGQGTKVEIKR	0.028 µg/mL	28 ng·mL	50.5%	0%	4%	14%	36%	52%	46.5 min
MORAb-003 anti-FRA antibody, lot NB809-66 (0.5 mM Na butyrate; harvested 13 days after initiation of culture) (antibody, human IgG1, kappa, V domains shown, N-linked neutral glycans at Asn299 in SEQ ID NO: 5) VH: EVQLVESGGGVVQPGRSLRLSCSASGFTFSGYGLSWVRQAPGKGLEWVAMISSGGSYTYYADSVKGRFAISRDNAKNTLFLQMDSLRPEDTGVYFCARHGDDPAWFAYWGQGTPVTVSS VL: DIQLTQSPSSLSASVGDRVTITCSVSSSISSNNLHWYQQKPGKAPKPWIYGTSNLASGVPSRFSGSGSGTDYTFTISSLQPEDIATYYCQQWSSYPYMYTFGQGTKVEIKR	0.015 µg/mL	15 ng·mL	61.5%	0%	3%	8%	31%	50%	53.5 min
